Experiment [1] concerns the target T1, hCD40-His (Human CD40 protein having a His-Tag, Beijing ACROBiosystems Co. Ltd., Cat #: CD0-H5228) (human, UniProt P25942 21-193).
T1 construct: Bought protein; not shown: His tag
The experiment is described as follows: SPR, Biacore 8K, Protein A chip, CD40-His as analyte, 1:1 Langmuir fit. The method, then:
(§1) Purified anti-CD40 antibodies at concentrations of 1 μg/ml with 1×HBS-EP+ buffer (PH 7.4) were then injected at 1 μl/min for 50 seconds. Dissociation was monitored for 400 seconds. The chip was regenerated after the last injection of each titration with a glycine solution (pH 2.0) at 30 μl/min for 30 seconds.
(Surface plasmon resonance follows binding to a sensor surface in real time, without labels.)

Experiment [2] has as its target T2, fasCD40-His (Cynomolgus CD40/TNFRSF5 Protein, His Tag, Beijing ACRO Biosystems Co. Ltd., Cat #: CD0-C52H6) (Macaca fascicularis, UniProt G7PG38 21-193).
T2 construct: Bought protein; also called monkey (Macaca fascicularis) CD40; not shown: His tag
Described as above. The method, then: as §1

For experiment [3], the target named is T3, dCD40-His (CD40 Protein, Canine, Recombinant (His Tag), Sino Biological Inc., Cat #: 70105-D08H) (dog, UniProt Q7YRL5 21-194).
T3 construct: Bought protein; also called dog CD40; not shown: His tag
T3 sequence (looked up): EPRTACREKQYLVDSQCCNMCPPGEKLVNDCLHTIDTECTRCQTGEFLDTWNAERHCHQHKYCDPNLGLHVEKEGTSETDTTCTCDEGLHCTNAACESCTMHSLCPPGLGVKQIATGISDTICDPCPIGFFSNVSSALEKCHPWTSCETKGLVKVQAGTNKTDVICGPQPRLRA
The description is as above. On the procedure:
as §1

Experiment [4] has as its target hFcRn-His (FCGRT&B2M Heterodimer Protein, His Tag&Strep II Tag, Beijing ACROBiosystems Co. Ltd., Cat #: FCM-H5286) (human) (UniProt P61769). The experiment is described as follows: SPR, Biacore 8K or T200, Protein A chip, steady state affinity model, pH 6.0; pH 6.0.

Substitutions are numbered along the chain they refer to. Names and notes keep the numbering of the source.

T1 sequence (P25942 21-193 limits assumed): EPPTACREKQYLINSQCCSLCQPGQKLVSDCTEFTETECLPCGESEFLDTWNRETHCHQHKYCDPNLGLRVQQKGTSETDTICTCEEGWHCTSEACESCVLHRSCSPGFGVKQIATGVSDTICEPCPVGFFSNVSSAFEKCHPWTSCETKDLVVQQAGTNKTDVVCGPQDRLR
Sequence of hFcRn-His (FCGRT&B2M Heterodimer Protein, His Tag&Strep II Tag, Beijing ACROBiosystems Co. Ltd., Cat #: FCM-H5286) (human) (chain, as listed by the source limits assumed, chain 1 of 2): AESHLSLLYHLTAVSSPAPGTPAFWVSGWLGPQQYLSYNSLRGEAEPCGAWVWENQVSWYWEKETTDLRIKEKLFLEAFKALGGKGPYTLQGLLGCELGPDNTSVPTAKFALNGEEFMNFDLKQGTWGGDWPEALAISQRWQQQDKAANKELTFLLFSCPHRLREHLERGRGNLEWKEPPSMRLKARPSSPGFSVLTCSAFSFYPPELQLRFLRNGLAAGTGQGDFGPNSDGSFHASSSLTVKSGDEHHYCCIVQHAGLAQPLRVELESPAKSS
Sequence of hFcRn-His (FCGRT&B2M Heterodimer Protein, His Tag&Strep II Tag, Beijing ACROBiosystems Co. Ltd., Cat #: FCM-H5286) (human) (P61769 21-119 limits assumed, chain 2 of 2): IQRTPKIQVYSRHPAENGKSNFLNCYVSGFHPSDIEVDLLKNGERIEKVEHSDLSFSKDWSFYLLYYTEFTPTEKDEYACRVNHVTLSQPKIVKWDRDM

B1: 12B5-IgG4-FLAA (antibody, V domains shown)
VH: QVQLVQSGPGLVKPSETLSLTCTVSGGSISYYYWSWIRQPPGKGLEWIGHISYSGSTNYNPSLKSRVTISEDTSKKQFSLKLDSVTAADTAVYYCAGGIVGARRGFDFWGQGTLVTVSS
VL: EIVMTQSPATLSLSPGERATLSCRASQSVSNNLAWYQQKPGQAPRLLIYDASNRAADIPARFSGSGSGTDFTLTISSLEPEDFAVYYCQQRNNWPPTFGQGTKVEIKR
notes: Rest: human IgG4 constant regions with FLAA mutations (F234A and L235A, EU numbering); copies: 2 + 2
In general, Kd refers to the constant that tells how readily two partners part at equilibrium. As usually defined, the koff is the first-order rate constant of dissociation. As a reminder, the kon is a measure of how fast the partners come together. Regarding B1, the Kd amounted to 0.735 nM in experiment [1], 0.495 nM in experiment [2], 32.1 nM in experiment [3] and 497 nM in experiment [4]. Besides, the koff in experiment [1] turned out to be 0.000389 s⁻¹; in experiment [2], 0.000265 s⁻¹; in experiment [3], 0.0129 s⁻¹. For the same molecule, the values for the kon in experiment [1], in experiment [2] and in experiment [3] were 529000 M⁻¹ s⁻¹, 535000 M⁻¹ s⁻¹ and 401000 M⁻¹ s⁻¹, respectively.

B2: 6A4-IgG4-FLAA (antibody, V domains shown)
VH: QVQLVQSGGGLVQPGGSLRLSCAASGFTFSNYVMSWVRQAPGKGLEWVSTIRGSGISTYYTDSVKGRFTTSRDNPKNTLFLQMSSLRAEDTAVYYCAKGIVGATTPFDYWGQGTLVTVSS
VL: B1 VL with M4L, S30R, N31S, N32F, D50E, A51T, A56T, D57G, N92S, N93D
notes: Rest: human IgG4 constant regions with FLAA mutations (F234A and L235A, EU numbering)
In experiment [1], B2 registered a Kd of 1.66 nM, a koff of 0.000511 s⁻¹ and a kon of 309000 M⁻¹ s⁻¹. In experiment [2], this molecule had a Kd of 51.7 nM, a koff of 0.0149 s⁻¹ and a kon of 288000 M⁻¹ s⁻¹.

B3: 2F8-IgG4-FLAA (antibody, V domains shown)
VH: EVQLVQSGGGVVQPGRSLRLSCAASGFSFSSYAMHWVRQVPGKGLEWVSVISYDGDNKYHAESVKGRFTISRDNSKNILYLQMNSLRPEDTAVYYCARRGTVTNYYSYSGLDVWGQGTTVTVSS
VL: DIQLTQSPLSLPVTPGEPASISCRSSQSLLYSNGKNYLDWYLQKPGQSPQLLIYLASNRASGVPDRFSGSGSGTDFTLKISRVEAEDVGVYFCMQALQTPRTFGQGTKVEIKR
notes: as for B2
In experiment [1], B3 gave a Kd of 0.351 nM, a koff of 0.000229 s⁻¹ and a kon of 654000 M⁻¹ s⁻¹. Moreover, in experiment [2], the Kd was found to be 0.301 nM, the koff came out at 0.000297 s⁻¹ and the kon was found to be 989000 M⁻¹ s⁻¹. Besides, in experiment [3], the Kd was 5.18 nM, the off-rate (koff) amounted to 0.00266 s⁻¹ and the kon worked out at 513000 M⁻¹ s⁻¹.

B4: Bleselumab analog (antibody, human IgG4, V domains shown)
VH: QLQLQESGPGLLKPSETLSLTCTVSGGSISSPGYYGGWIRQPPGKGLEWIGSIYKSGSTYHNPSLKSRVTISVDTSKNQFSLKLSSVTAADTAVYYCTRPVVRYFGWFDPWGQGTLVTVSS
VL: AIQLTQSPSSLSASVGDRVTITCRASQGISSALAWYQQKPGKAPKLLIYDASNLESGVPSRFSGSGSGTDFTLTISSLQPEDFATYYCQQFNSYPTFGQGTKVEIKR
Take B4: in experiment [1], binding was put at a Kd of 1.59 nM, the off-rate (koff) amounted to 0.000682 s⁻¹ and the kon was 429000 M⁻¹ s⁻¹. In experiment [2], the Kd is 3.35 nM, the koff was 0.000907 s⁻¹ and the kon is 270000 M⁻¹ s⁻¹.

(Values after patent US20260250403A1 (BIOCYTOGEN PHARMACEUTICALS BEIJING, published 2026).)
